Results reported in the supplement of paper PMC6755084.

B1: F1*; the commonest letter at each place (parent)
chain: GAGACCGCAACTGAAAAGTTGTTATCACTTGTCGTAAGACACTTTGGATGGGTTGAAGTTCTGCACGTAGAAGCAAAAGGC

Variants of: B1
Experiment: fraction ligated after 30 min (ligated reads / total reads); higher = more ligase activity
Conditions: with F1*sub RNA substrate (template-directed ligation), 42 °C
Method in brief: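 Ligase ribozyme variants were made from oligo-pool templates by PCR amplification, T7 transcription and gel purification. After gel separation, ligated and unligated bands were reverse transcribed with barcoded primers and sequenced on a MiSeq, with core bases filtered at quality ≥20. The fraction ligated for each variant was the number of ligated reads divided by total reads.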
Work on T32G C33A yielded a fraction ligated of 0.843. In the case of T32G C33T, the fraction ligated is reported as 0.856. Variant T32G C33G has a fraction ligated of 0.828. T32A A57G was tested, and the fraction ligated was 0.859. With T32A A57C the fraction ligated was 0.821. T32A A57T showed a fraction ligated of 0.821. T32C G46T was tested, and the fraction ligated was 0.729. T32C G46A gave a fraction ligated of 0.763. In the case of T32C G46C, the fraction ligated is reported as 0.717. T32G G47C was tested, and the fraction ligated was 0.0306. With T32G G47T the fraction ligated was 0.0926. Variant T32G G47A has a fraction ligated of 0.556. G31T G50A gave a fraction ligated of 0.0382. Work on G31T G50C yielded a fraction ligated of 0.0159. Variant G31T G50T has a fraction ligated of 0.103. Work on G31C A57G yielded a fraction ligated of 0.807. Variant G31C A57C has a fraction ligated of 0.788. With G31C A57T the fraction ligated was 0.793. In the case of G31C T45A, the fraction ligated is reported as 0.492. For G31C T45G, the fraction ligated was 0.0355. G31C T45C showed a fraction ligated of 0.0406. In the case of T32A A56G, the fraction ligated is reported as 0.808. T32A A56C gave a fraction ligated of 0.574. Work on T32A A56T yielded a fraction ligated of 0.82. T32G G38T showed a fraction ligated of 0.799. T32G G38C showed a fraction ligated of 0.798. With T32G G38A the fraction ligated was 0.822. G31T T35A showed a fraction ligated of 0.797. G31T T35G was tested, and the fraction ligated was 0.803. Variant G31T T35C has a fraction ligated of 0.782. Work on G31A T45A yielded a fraction ligated of 0.395. In the case of G31A T45C, the fraction ligated is reported as 0.0954. With G31A T45G the fraction ligated was 0.137. G31C A36C was tested, and the fraction ligated was 0.357. Variant G31C A36T has a fraction ligated of 0.79. In the case of G31C A36G, the fraction ligated is reported as 0.682. T32C A48T showed a fraction ligated of 0.114. Variant T32C A48G has a fraction ligated of 0.75. With T32C A48C the fraction ligated was 0.369. T32C A41T gave a fraction ligated of 0.776. T32C A41C was tested, and the fraction ligated was 0.755. With T32C A41G the fraction ligated was 0.709. Work on G31C A48C yielded a fraction ligated of 0.242. G31C A48G gave a fraction ligated of 0.389. G31C A48T showed a fraction ligated of 0.0135. T32C G47A gave a fraction ligated of 0.669. Variant T32C G47C has a fraction ligated of 0.0784. Variant T32C G47T has a fraction ligated of 0.103. For T32A G46A, the fraction ligated was 0.81. Variant T32A G46T has a fraction ligated of 0.787. T32A G46C was tested, and the fraction ligated was 0.778. With T32A C33T the fraction ligated was 0.847. In the case of T32A C33G, the fraction ligated is reported as 0.823. Work on T32A C33A yielded a fraction ligated of 0.811. Variant T32A G50A has a fraction ligated of 0.232. Work on T32A G50T yielded a fraction ligated of 0.454. T32A G50C was tested, and the fraction ligated was 0.0632. G31C T49G gave a fraction ligated of 0.0675. G31C T49C gave a fraction ligated of 0.0658. In the case of G31C T49A, the fraction ligated is reported as 0.0574. T32C G50C showed a fraction ligated of 0.0903. In the case of T32C G50A, the fraction ligated is reported as 0.216. With T32C G50T the fraction ligated was 0.273. T32C showed a fraction ligated of 0.803. T32A showed a fraction ligated of 0.842. In the case of T32G, the fraction ligated is reported as 0.828. For T32C A37C, the fraction ligated was 0.79. T32C A37G showed a fraction ligated of 0.815. Variant T32C A37T has a fraction ligated of 0.78. Work on G31C G38C yielded a fraction ligated of 0.778. For G31C G38T, the fraction ligated was 0.819. With G31C G38A the fraction ligated was 0.811. Work on G31C A37G yielded a fraction ligated of 0.817. Work on G31C A37T yielded a fraction ligated of 0.79. With G31C A37C the fraction ligated was 0.769. Work on T32A G38T yielded a fraction ligated of 0.825. With T32A G38C the fraction ligated was 0.82. T32A G38A gave a fraction ligated of 0.861. T32C T35C was tested, and the fraction ligated was 0.829. T32C T35A showed a fraction ligated of 0.811. T32C T35G showed a fraction ligated of 0.808. T32A T49A gave a fraction ligated of 0.568. T32A T49G was tested, and the fraction ligated was 0.618. T32A T49C gave a fraction ligated of 0.223. In the case of T32C T44C, the fraction ligated is reported as 0.756. T32C T44A was tested, and the fraction ligated was 0.751. T32C T44G was tested, and the fraction ligated was 0.793. G31C C42A was tested, and the fraction ligated was 0.82. Variant G31C C42G has a fraction ligated of 0.79. In the case of G31C C42T, the fraction ligated is reported as 0.786. G31C G55C gave a fraction ligated of 0.14. With G31C G55T the fraction ligated was 0.794. With G31C G55A the fraction ligated was 0.809. For T32G G34T, the fraction ligated was 0.793. T32G G34A gave a fraction ligated of 0.83. T32G G34C showed a fraction ligated of 0.726. Variant G31T G55T has a fraction ligated of 0.759. G31T G55A gave a fraction ligated of 0.813. With G31T G55C the fraction ligated was 0.176. Work on T32C C33T yielded a fraction ligated of 0.849. T32C C33G gave a fraction ligated of 0.797. In the case of T32C C33A, the fraction ligated is reported as 0.863. With G31T G47C the fraction ligated was 0.0376. For G31T G47T, the fraction ligated was 0.022. G31T G47A gave a fraction ligated of 0.246. With G31C G34T the fraction ligated was 0.778. G31C G34A gave a fraction ligated of 0.78. G31C G34C gave a fraction ligated of 0.804. G31T G46C gave a fraction ligated of 0.681. G31T G46A was tested, and the fraction ligated was 0.79. With G31T G46T the fraction ligated was 0.769. Variant T32A T43G has a fraction ligated of 0.789. T32A T43C gave a fraction ligated of 0.812. T32A T43A was tested, and the fraction ligated was 0.831. G31T A37G gave a fraction ligated of 0.792. Work on G31T A37C yielded a fraction ligated of 0.78. G31T A37T showed a fraction ligated of 0.815. Variant T32G A39G has a fraction ligated of 0.819. In the case of T32G A39C, the fraction ligated is reported as 0.855. Variant T32G A39T has a fraction ligated of 0.862. With G31T T43G the fraction ligated was 0.76. For G31T T43C, the fraction ligated was 0.78. Work on G31T T43A yielded a fraction ligated of 0.778. Work on G31C T32G yielded a fraction ligated of 0.78. In the case of G31C T32A, the fraction ligated is reported as 0.803. G31C T32C gave a fraction ligated of 0.796. In the case of T32G G50C, the fraction ligated is reported as 0.0952. For T32G G50A, the fraction ligated was 0.179. T32G G50T showed a fraction ligated of 0.384. Variant G31C A56G has a fraction ligated of 0.607. In the case of G31C A56T, the fraction ligated is reported as 0.694. In the case of G31C A56C, the fraction ligated is reported as 0.155. For T32G A36T, the fraction ligated was 0.823. Variant T32G A36G has a fraction ligated of 0.813. Variant T32G A36C has a fraction ligated of 0.798. Variant T32C C42G has a fraction ligated of 0.806. With T32C C42A the fraction ligated was 0.826. For T32C C42T, the fraction ligated was 0.842. T32C A57G was tested, and the fraction ligated was 0.781. T32C A57T gave a fraction ligated of 0.775. For T32C A57C, the fraction ligated was 0.76. With T32C A56G the fraction ligated was 0.738. In the case of T32C A56C, the fraction ligated is reported as 0.727. T32C A56T gave a fraction ligated of 0.766. For G31T C33G, the fraction ligated was 0.808. G31T C33T was tested, and the fraction ligated was 0.777. For G31T C33A, the fraction ligated was 0.831. In the case of T32G G55T, the fraction ligated is reported as 0.798. T32G G55C showed a fraction ligated of 0.63. Variant T32G G55A has a fraction ligated of 0.803. Variant T32G A37G has a fraction ligated of 0.842. With T32G A37C the fraction ligated was 0.815. Work on T32G A37T yielded a fraction ligated of 0.825. G31C A41G showed a fraction ligated of 0.779. For G31C A41C, the fraction ligated was 0.492. With G31C A41T the fraction ligated was 0.732. Variant T32G T45G has a fraction ligated of 0.0918. For T32G T45A, the fraction ligated was 0.748. T32G T45C showed a fraction ligated of 0.346. Variant T32A C40T has a fraction ligated of 0.806. T32A C40A was tested, and the fraction ligated was 0.834. T32A C40G showed a fraction ligated of 0.834. T32A T35G gave a fraction ligated of 0.812. T32A T35A showed a fraction ligated of 0.855. With T32A T35C the fraction ligated was 0.829. G31T T45C gave a fraction ligated of 0.116. Variant G31T T45A has a fraction ligated of 0.387.
